Here are results for 16 sequences from the DeepSol protein solubility set.

This data set can be described thus: soluble on expression in E. coli; label from the status in PepcDB or PDB records.
Regarding “MRLTDQKRESIVQAAIAEFGDRGFEITSMDRIAARAEVSKRTVYNHFPSKEELFAEMLQRLWNCAPPQSEVVYRPLVSLREQLLELLWGKMRNLTDSSFLDLARVVVGATIHSPERAQVWLARINEREETFSAWIRAAQKDGRLKPVDPGFAATQMHALLKSFAFWPQVTFNAALLTPQEQSNVVESALNMFLGWYEIPG”, the “soluble on expression in E. coli” value is “soluble”.

As to “MRLVIHGKNIDITDGIRSYLNQKIERATSHFQNVINEVDVHLSVARNRSTAPKQTAEVTVFVNGSVIRAEESSENLYASIDLVADKIARKLRKLKEKRQDKSRAKDTNSVVEPEVVTDLVGDRTPQLPEQVVRMKYFAMPPMTIQEALEHLEMVDHDFYVFRNRDTGEINVVYERNHGGYGVIQPRPTSNNHHHNTADAAAKATAKAGPLEHHHHHH”, the “soluble on expression in E. coli” value is “soluble”. For “MRMAAMHSGGKTIQLNAGHYQAKIVTVGAGLAELTHHGRHVVIPHKPEEIPMAHLGKVLIPWPNRVTNGCYSYNGKVFQLAVNDPVSQTAIHGLLAWRDWQINYQSATEASLTIFLPPSYGYPFALISEVIYRLDAASGLHVLIRTQNIGDESAPYGAGAHPYLTCNLQSIDSCVLTLPASEELPAGRDFSASCLLGETRLDHAVKTATTPAEWEVRLTSPTQNMSTFLRSTQPWLQIYTGEKLSRKGLAVEPMSCPPDAFNSGIALIHLAPKAIHQLHFSIGCD” the value was “not soluble”; for “MRMIFVNLPVKNIEVSKSFFTALGFSFNPEYSDDRTLCMIVEENIFVMLLQEDRFRDFINGDIADAKQSTEVLTCLSAGSREEIDEMIATALASGGSSWKPVQDHGFMYAGSFQDPDGHVWELVHMTGQG”, “soluble”. The result for “MRMKPYSELTREELLELKKDLSAQYHAFQGKDLKLDMSRGKPSVEQLDLSMGMMDVLNSDCDLTCEDGTDCRNYGVLDGIREAKELLGDMIEVPADNIIIYGNSSLNVMYDTISRSMTHGVMGNTPWCKLDKVKFLCPVPGYDRHFAITEYFGIEMVNVPMTEEGPDMDIVEELVSKDESIKGIWCVPKYSNPTGNSYSDQTVRRFARLKPAAADFRIYWDNAYSVHHLYDDDQDNLIEILAECKRAGNPDLAYKFSSTSKISFPGSGIAAVATSHNNLEDIKKQLRMQTIGHDKVNQLRHVRYFKNIHGMVEHMRKHAEILRPKFEAVEAILERELGGLGIGSWTSPKGGYFISFDSMDGCAKDIVAKCKKAGVVMTGAGATYPYGKDPHDSNIRIAPSYPPLQDLITATELFALCVKIVTVNKLLGATK” reads “not soluble”; that for “MRMTINRYNFQALWNRMCMILTSKGGELKFGEIIPDTKRSEMKIGKTLYIVNSRYNGKENIIDKFKRLITRKLESQSKGN”, “not soluble”.

For “MRNFKKSDKLNNVSYDVRGPVLEEAERMQEEGIRILKLNTGNPAPFGFDAPNEIVRDMIVNVRDSEGYSDSKGIFSARKAIEQYCQLKKFPNVTINDIYTGNGVSELITMCMQGLLNNGDEVLVPMPDYPLWTASVSLAGGTPVHYICDEQAEWYPDIDDIKSKITSNTKAIVIINPNNPTGALYPKELLLEIVEVARQNDLIIYSDEIYDRLVMDGLVHVPIATLAPDLFVVTLNGLSKSHRVAGFRCGWMVLSGDKSRVKGYIEGLNMLASMRLCSNVLSQQIIQTALGGYQSVDGLLLPGGRIYEQREFIYNAINDIPGLSAVKPKAAFYIFPKIDTAKFDIYDDEKFVLDFLHKHHILLVHGGGFNWQQPDHFRIVYLPKMEDLKTTADKMREFLSTYKQK”, the “soluble on expression in E. coli” value is reported as “not soluble”.

With “MRNILKATTLENKFPLFTVENGCIVSKDADITVAFRVELPELFTVTAAEYEAIHSAWNKAVKVLPDYSIVHKQDWFIKENYAPDIQKDDLSFLSRSFERHFNERPFLNHTCYLFLTKTTKEHSRMQSNFSTLCRGFLVPKEIRDRETVTKFLEAVGQFESIMNDSGFITLTRLSSDEITGTRETAGIVEKYFSLSQTDTTTLKDISLGADEMKIGDNILCLHTLSDAEDMPGKVGTDTRYEKLSTDRSDCRLSFASPVGVLLSCNHIYNQYIFIDDHTENLKQFEKMARNMHSLSKYSRANQINKSWIEEYLNEAHSQGLISVRCHCNIMAWSDDRDELKHIKNDVGSQLALMECKPRHNTTDTPTLFWAGIPGNQADFPAEESFYTFIEQALCLFTEETNYKSSLSPFGIKMVDRVTGKPLHIDISDLPMKRGIITNRNKFILGPSGSGKSFFTNHMVRQYYEQNAHVLLVDTGNSYLGLCEMINRKTHGEDGIYFTYTTENPIAFNPFYVEDGVFDIEKKESIKTLILTLWKRDDEAPTRAEEVALSNAVSSYIGLITKDCSVTPCFNTFYEYVRNDYRAHLQEKNVREKDFDIDNFLNVLEPYYKGGEYDYLLNSDKELDLLHKRFIVFELDNIKDHKILFPITTIIIMEVFINKMRKLKGIRKLILIEEAWKAIASANMADYIKYLYKTVRKYFGEAIVVTQEVEDIISSPIVKESIINNSDCKILLDQRKYLNKFDSIQNLLGLTDKERSQVLSINLANHPNRKYKEVWIGLGGTQSAVYATEVSLDEYFTYTTEETEKMELFALSEKLGGNLELAIKRLAESKRNPEK”, the “soluble on expression in E. coli” value is reported as “not soluble”. The result for “MRNTLKAATLESKFPLLAVEADCIISKDADITAVFEVDLPELFTVTAAEYEAIHAAWAKAIKVLPNYTVVHKQDWFIREDYRSQTDKENLSFLSRSYEMHFNERPFLNHKCYLYLTKTTKERMRMQSSFSSLCRGFIIPKEVDKDTTAHFLDTVGQFARIVNDTGLVHLRRLVGDEITGTENKAGLVEKYFCLSMENTTALEDIELGDDGLRVGDKHVSVHTLSELDALPSKVGTDCRYERLSTDKSDCKLSFASPVGLLLSCNHLYNQYIFLDDSGENLQRFEKNARNMQSLSKYSRSNQINKEWIDLYLNDAHSFGLTSVRAHCNIIAWTDNPMEVKNMRNDVGSQIAMMECKPRHNTVDAATLYWAAIPGNGADFPAEESFYTFIEQALCFWVEETNYRSSVSPFGLKMSDRISGKPLHVDISDLPMKRGVTTNRNKFVLGGSGSGKSFFMNHLARQYYEQGTHVVLIDTGNSYQGLCSLIHQKSGGKDGIYFTYTDENPIAFNPFFTDDKVFDIEKRESIKTLILTLWKKDNEPATRSEEVALSNAVSLYIRRIKEDESIVPSFNTFYEFVKTDYRRILEEKEVREKDFDLAGFLNVLEPYYRGGEYDFLLNSDKQLDLLGKRFIVFEIDQIKDHPILFPVTTIIIMELFINKMRRLKGVRKMIIIEEAWL” reads “not soluble”; that for “MRPDVAFALPALAGGGVERVYLDLAGAMVKEGLRVDFVLARAEGPLLAQLPQGVRLWDLGVPRRLPLLRAYTPLGVYLAQARPRVVLPDWDYLDWVPLQAAWRSRTPFLWVLHNAPAYLKDVPNPVKRHTALWAARQTLKRAVNHPLGRVGAVSRGVAQAFARFGGVPEERICVLPNPIHVDRVRRLSHENVPLPATPYFLALGRLHPQKGFSLLLEAFSIFAKHHPDVHLLILGEGPERPRLEKLAHTLGLTSRVAFLGFVVNPYPYLRGAKALVITSRYEGFSMVALEALALRVPVVAVESEGGLLEALGDGRFGIVTPRSPQALAHAMERVLSDGFAWDETALKDHLNQYSPEAALRSYMSVLEEIWR”, “soluble”; that for “MRPILLPDPPSLSTGVPDIFEQGGSHNVVRRAVVIGNGFPGSENQCIGLVRALGLSDNHLLYVFSLLGLSLSRSGNFILFSTSLECMNVQRRRNYLNFYGNNELRIESLVEHDAGAITEFRLQGTLRVTRPKGGLNEWLHWLPVGFHKKLDFILRHIYLYSRLMLGSKQSKYISSVPSENGGNVGLASILEADVKGIVNLARQTYEKDGPLIVIACGRDTISIASSIRRLASENVFVVQIQHPRSHLNRFDMVITPRHDYYPLTLEAQEQVPRFMRSWITPREPPQDHVVLTTGALHQIDYASLRKAASAWHDEFAALPKPLVVVNIGWPRSNCRYGADLAKQLTDSLLNVLATCGSVRITLSYKTPAKVSRVIFKELGDNPKVYIWNGQEPNPYMGHLAWGDAFVVTADSVSLISEACSTGKPVYVVGADHCKWKIAEFQKSLRERGVVRSFTGFEDMSESWSYPPLNDTAEAATRIRRELAARGWSLRS”, “soluble”. Turning to “MRQIVPKVVVVGAGMGGLASAIRLARAGCEVTLLEAREAPGGRMRTLPSVAGPVDAGPTVLTLREVFDDIFEVCGQKLDHHLTLLPQPLLARHWWLDGSTLDLTTDLEANVEAVAAFAGAREARAFRRFHDLSARLYDAFDRPMMRAARPDLRAIATGALKAPRTWPALLPGMTLDRLLRLFFRDRRLRQLFGRYATYVGGTPYGAPGVLALIWAAEARGVWAIEGGMHRLALALARLADDQGVRLRYGAPVARILRQGGRATGVQLADGRTLPADHIVFNGDPAALLAGCLGDGPQDAVPEDRIHPRSLSAWVWSYAARASGPPLVHHNVFFADDPRREFGPIAAGQMPEDATLYICAEDRSGGQLPDGPERFEIIMNGPPGRPAKPEDFAQCRSRTFDRLRQFGLTFDPVPGETSLTAPSGFASLFPASQGSIYGLSPHGALASLKRPLARTALPGLWLAGGGAHPGAGVPMAALSGRHAAEAILADLASRSRLEHHHHHH”, the “soluble on expression in E. coli” value is “not soluble”.

Take “MRRAAIFFFYDERGQVDDYIFYLLEKLRPFVETIIFVSNGEISQSSEASLRSTVDETIIRENTGFDVGAYRDGLEFIGYDKLGDYDEILLLNHTFYGPVFPFSEMFSEMERRACDFWGISDHKEVSPNPFTGAGVLPRHLNSHFIAVRKAMLESIAFRNYWERMPKITDYAESVLLHESRFTGFFENLGYKSETYLDSDKYNSAYPVMIDVDQIYNDRSPILKRRLFFNDPTFLDKNAVDLPRALRVLKETSDYDLNLIWRNVLRSSDLRTLNTNAALMSVLPDKRIKGDGAAADYGKIAVCAHIYYTDMLDEILGLTGNIPVPYDFIATTNTPEKKAEIETALANRPGVKNVIVRVVEQNRGRDMSSLFISLRDLLVDDRYDLVCRLHTKKSPQVQSSMGNLFKRHMVDNLLNSRGYVHNVLDMFHDNPSVGLAIPPIFHISYPTMGFSWFANKPKVEETARLLNINVKFDENTPVAAYGTMFWFRPRALRKMFEHKWKWEEFNAEPDHVDGGFAHALERLIAYAVQNAGYTTQHIMCAHQAEHNYTMLEFKLQKLASFMPSGDFPLQCHMVSEWRKGGYPLGSHVSATPAPMPTSVKHSLAELNLAVKSSLRFRAPILFRALRPIYRGTRAILKPNSRRSGGLEHHHHHH”: the “soluble on expression in E. coli” value is recorded as “soluble”. Take “MRRFDCTVVAIHDDASLGCRLPGANKALRIQLNAVELPAAEPWRRRAREALEDMLLGKSATIREQGRDARFRILGAAWVTPADCPTCGHTLDAGLALLTIGLASWRDAPDSGQTAEARGQYRFAEEEARARKAGQWRP”: the “soluble on expression in E. coli” value is given as “soluble”. The result for “MRRIILIFSLLTLSLMAFGEEIKVDRSVEESITKDYDQDGVYSSYEKALRRAQESVYVKLPEKRGYWYTILDRVKAEEEELMPEEINRMRRR” reads “not soluble”.

Turning to “MRRNRFLAPLLVAASLLATAPAHGQPAPAAVLASDEAQRIALDAYVYVYPLVVMDLSRRQDTGGKGPGHAPANTFAHERRLPQADFRRLPRPNFDMLRSSAWLDLSTGPVVISTPETHGRLYTLSVLDMWTDIFAVLGKRTTGTARGNHAIVPPGWTGVLPRGMHRIDAPTAQVQARLYVQTGGSSEYPGVHAVQDGFILTPLAEWNQQAQSVRLRSDPDLDALTPAQQQVEGMNAEDYFGYAAELLRKHAPHATDQPMLARLRRLGIAPGQQLAFARLPTTVQQALRHAVRNGPQALRDSLPATGSLANGWQADADGAGVYGNAYLRRAVTTQARLGASLPEDVTAMLLLADAAGRPLEGGQRYVLRFEADQLPPAGALWSLNAYDAQGYPVGNGFNRYALGDRDPVRYNPDGSLELYLQRDPPGPDDQANWLPTGEGAPGVILRIYLPQASVLAGRWVPPAARRVEAADDAAALEHHHHHH”, the “soluble on expression in E. coli” value is recorded as “not soluble”.
